We go through eight molecules from patent publication US20250257133A1 (ADAGENE PTE, published 2025).

Experiment [1] deals with T1, Human CD28 (ELISAs of Examples 4 and 13) (human, UniProt P10747 19-152, limits assumed). The experiment can be described thus: ELISA, blocking of CD28-CD80. A general note: An ELISA detects its analyte on a solid surface through an enzyme-linked reagent.
Experiment [2] deals with T2, His-tagged human CD28 protein (human, UniProt P10747 19-152).
T2 construct: not shown: His tag
As to the kind of experiment: Octet BLI, mAb captured.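 Also: Anti-human Fc biosensors captured the antibodies, then His-tagged protein analytes at 100 nM associated for 300 s and dissociated for 300 s, fitted by a 1:1 Langmuir model.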

Experiment [3] has as its target T3, His-tagged human CTLA4 protein (human, UniProt P16410 36-161, limits assumed).
T3 construct: not shown: His tag
As to the kind of experiment: Octet BLI, mAb captured.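 Also: Anti-human Fc biosensors captured the antibodies, then His-tagged protein analytes at 100 nM associated for 300 s and dissociated for 300 s, fitted by a 1:1 Langmuir model.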

Experiment [4] has as its target T4, Recombinant human CD28-Fc (human, UniProt P10747 19-152).
T4 construct: not shown: Fc part
As to the kind of experiment: ELISA, coated CD28-Fc.

Experiment [5] deals with T5, Recombinant mouse CD28-Fc (mouse, UniProt P31041 20-150).
T5 construct: not shown: Fc part
T5 sequence (P31041 20-150 limits assumed): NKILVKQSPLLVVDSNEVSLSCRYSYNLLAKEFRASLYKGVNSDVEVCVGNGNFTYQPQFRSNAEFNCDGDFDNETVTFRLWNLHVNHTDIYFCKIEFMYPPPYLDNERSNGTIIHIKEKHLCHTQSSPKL
The experiment can be described thus: ELISA, coated CD28-Fc.

For experiment [6], the target named is T6, Human CD28 on cells (human, UniProt P10747 19-220).
T6 construct: Jurkat E6-1 cells, primary human T cells, or transfected HEK293F cells; also called CD28 on Jurkat cells; CD28 on human CD3+ T cells
As to the kind of experiment: flow cytometry, Jurkat cells. A general note: Flow cytometry measures light scatter and fluorescence of single cells or particles in a stream.
Experimental: Next, the cells were washed twice with DPBS and further incubated with a APC-anti-human IgG Fc secondary antibody (1 μg/mL, 100 μL/well, Biolegend) for 30 minutes at 4° C. Finally, the cells were washed twice with DPBS and suspended in FACS buffer for flow cytometry analysis. For analysis, the Mean Fluorescence Intensity (MFI) values versus concentrations were plotted using FlowJo 10 software (FlowJo LLC) and the data were further fitted with four-parameter non-linear regression to obtain EC₅₀ values by GraphPad Prism version 7 for Windows, GraphPad Software, La Jolla California USA, www.graphpad.com.

Experiment [7] addresses T1, Human CD28 (ELISAs of Examples 4 and 13). As to the kind of experiment: ELISA.
The target of experiment [8] is T7, Mouse CD28 on cells (mouse, UniProt P31041 20-218).
T7 construct: also called CD28 on mouse T cells
T7 sequence (P31041 20-218 limits assumed): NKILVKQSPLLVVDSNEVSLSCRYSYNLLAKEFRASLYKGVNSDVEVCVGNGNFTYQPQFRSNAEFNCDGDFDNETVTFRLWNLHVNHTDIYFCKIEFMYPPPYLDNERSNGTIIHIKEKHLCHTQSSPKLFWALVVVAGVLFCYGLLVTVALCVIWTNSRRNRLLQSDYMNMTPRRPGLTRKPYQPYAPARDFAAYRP
As to the kind of experiment: flow cytometry on mouse T cells, median fluorescence intensity; drawn table. Also on record: AUC: unit not given beside the values.

The target in experiment [9] is T8, B7H3 on MDA-MB-231 cells (UniProt Q5ZPR3 29-534, limits assumed).
T8 construct: whole, on cells
T8 sequence (looked up): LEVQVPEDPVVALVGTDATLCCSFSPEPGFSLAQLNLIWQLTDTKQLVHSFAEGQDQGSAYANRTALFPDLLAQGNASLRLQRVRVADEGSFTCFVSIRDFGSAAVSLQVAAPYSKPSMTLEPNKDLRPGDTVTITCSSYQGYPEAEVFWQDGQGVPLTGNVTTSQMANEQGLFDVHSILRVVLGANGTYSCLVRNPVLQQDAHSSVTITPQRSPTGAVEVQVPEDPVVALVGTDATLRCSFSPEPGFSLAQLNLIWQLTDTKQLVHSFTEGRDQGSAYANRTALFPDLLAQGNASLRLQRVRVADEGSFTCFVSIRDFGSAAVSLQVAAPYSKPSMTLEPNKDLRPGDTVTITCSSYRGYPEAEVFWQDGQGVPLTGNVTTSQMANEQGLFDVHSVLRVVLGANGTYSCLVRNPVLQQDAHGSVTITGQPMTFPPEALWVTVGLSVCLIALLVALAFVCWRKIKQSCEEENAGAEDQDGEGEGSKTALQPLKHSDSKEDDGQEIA
As to the kind of experiment: flow cytometry, MDA-MB-231 cells.
Experimental: An isotype antibody was included as a negative control.
MDA-MB-231 cells were cultured and seeded in 96-well plates at 1.0×10⁵ cells/well and incubated with serially diluted test BsAbs for 60 minutes at 4° C. in 2% FBS/RPMI1640 buffer. Next, the cells were washed twice with DPBS and further incubated with secondary APC-anti-human IgG Fe antibody (1:400 dilution) for 30 minutes at 4° C. Finally, the cells were washed twice with DPBS and resuspended in FACS buffer for flow cytometry analysis. For analysis, the MFI values versus concentrations were plotted using FlowJo 10 software (FlowJo LLC) and the data were further fitted with four-parameter non-linear regression to obtain EC₅₀ values by GraphPad Prism version 7 for Windows.

T3 sequence (P16410 36-161 limits assumed): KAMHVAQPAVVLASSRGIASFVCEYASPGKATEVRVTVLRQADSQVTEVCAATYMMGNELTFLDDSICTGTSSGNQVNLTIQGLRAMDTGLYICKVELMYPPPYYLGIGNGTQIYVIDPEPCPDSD

B1: TY24878 (antibody, human IgG4 S228P, kappa, V domains shown)
VH: QVQLVQSGAEVKKPGSSVKVSCKASGFSLSTGGVAVAWIRQAPGQGLEWIGQIYYSGSTYYNPSLKSRVTITADKSTSTAYMELSSLRSEDTAVYYCARSSAHYYFDVWGQGTLVTVSS
VL: DIQLTQSPSSLSASVGDRVTITCRASESVDFQGISFLDWYQQKPGKAPKLLIYDASSLESGVPSRFSGSGSGTDFTLTISSLQPEDFATYYCQQSYRSPITFGQGTKVEIKR
notes: hIgG4/S241P
Consider B1, for which, in [1], the midpoint of inhibition, the IC50, lay at 0.35 nM. The Kd was 4.21 nM in experiment [2] and 0.969 nM in [3]. Further, the koff in experiment [2] is 0.000411 s⁻¹; in experiment [3], 0.00041 s⁻¹. Further, the kon in [2] worked out at 97500 M⁻¹ s⁻¹; in [3], 423000 M⁻¹ s⁻¹. The EC50 in [4] was 1.06 nM; in experiment [5] it was above 14.8 nM; in experiment [6] it was 0.39 nM.

B2: TY29021 (bispecific antibody, human IgG1, kappa, N297A)
light: DIQLTQSPSSLSASVGDRVTITCRASQSIRKYLNWYQQKPGKAPKLLIYAASTLQSGVPSRFSGSGSGTDFTLTISSLQPEDFATYFCSQGTHVPFTFGQGTKVEIKRTVAAPSVFIFPPSDEQLKSGTASVVCLLNNFYPREAKVQWKVDNALQSGNSQESVTEQDSKDSTYSLSSTLTLSKADYEKHKVYACEVTHQGLSSPVTKSFNRGEC
heavy: EVQLVESGGGLVQPGGSLRLSCAASGFTFSGYGIHWVRQAPGKGLEWIGWISPSGGDTKYAQKFQGRVTISRDNSKNTLYLQLNSLRAEDTAVYYCARGGTVVYFDYWGQGTLVTVSSASTKGPSVFPLAPSSKSTSGGTAALGCLVKDYFPEPVTVSWNSGALTSGVHTFPAVLQSSGLYSLSSVVTVPSSSLGTQTYICNVNHKPSNTKVDKKVEPKSCDKTHTCPPCPAPELLGGPSVFLFPPKPKDTLMISRTPEVTCVVVDVSHEDPEVKFNWYVDGVEVHNAKTKPREEQYASTYRVVSVLTVLHQDWLNGKEYKCKVSNKALPAPIEKTISKAKGQPREPQVYTLPPSRKKLTKNQVKLTCLVKGFYPSDIAVEWESNGQPENNYKTTPPVLDCDGSFFLYSKLTVDKSRWQQGNVFSCSVMHEALHNHYTQKSLSLSPGK
chain: EVQLVESGGGLVQPGGSLRLSCAASGFSLSTGGVGVSWIRQAPGKGLEWIGEIYHSGSTYYSPSLKSRVTISRDNSKNTLYLQLNSLRAEDTAVYYCARYEYYYYDFDYWGQGTLVTVSSGGGGSGGGGSGGGGSGGGGSDIQLTQSPSSLSASVGDRVTITCRASQSVDFHGISFLHWYQQKPGKAPKLLIYAASSLQSGVPSRFSGSGSGTDFTLTISSLQPEDFATYYCQQSYRSPRTFGQGTKVEIKEPKSSDKTHTCPPCPAPELLGGPSVFLFPPKPKDTLMISRTPEVTCVVVDVSHEDPEVKFNWYVDGVEVHNAKTKPREEQYASTYRVVSVLTVLHQDWLNGKEYKCKVSNKALPAPIEKTISKAKGQPREPQVYTDPPSRDELTKNQVSLTCLVDGFYPSDIAVEWESNGQPENCYKTTPPVLDSDGSFFLYSKLTVDKSRWQQGNVFSCSVMHEALHNHYTQDSLSLSPGK
notes: anti-B7H3 Fab x CD28 scFv WT (VH-VL)-Fc; also called TY29021 (WT)
Molecule B2 gave an EC50 in experiment [7] of 36.4 nM. In experiment [8], the AUC was found to be 549 and the “Max MFI” value was determined as 364.

B3: TY21601 (antibody, V domains shown)
VH: EVQLVESGGGLVQPGGSLRLSCAASGFTFSGYGIHWVRQAPGKGLEWIGWISPSGGDTKYAQKFQGRVTISRDNSKNTLYLQLNSLRAEDTAVYYCARGGTVVYFDYWGQGTLVTVSS
VL: DIQLTQSPSSLSASVGDRVTITCRASQSIRKYLNWYQQKPGKAPKLLIYAASTLQSGVPSRFSGSGSGTDFTLTISSLQPEDFATYFCSQGTHVPFTFGQGTKVEIK
notes: also called parental anti-B7H3 mAb; B7H3 IgG
In experiment [9], B3 displayed an EC50 of 0.453 nM.

B4: TY24859 (antibody, human IgG4 S228P, kappa, V domains shown)
VH: EVQLVESGGGLVQPGGSLRLSCAASGFSLSTGGVGVGWIRQAPGKGLEWIGEIYHSGSTYYSPSLKSRVTISRDNSKNTLYLQLNSLRAEDTAVYYCARYGYSYYALDYWGQGTLVTVSS
VL: DIQLTQSPSSLSASVGDRVTITCSASSSVGYVQWYQQKPGKAPKLLIYDASNLETGVPSRFSGSGSGTDFTLTISSLQPEDFATYYCQQSYTSPRTFGQGTKVEIKR
notes: hIgG4/S241P
As for B4, the IC50 in experiment [1] was 0.42 nM. Also, the Kd in experiment [2] was found to be 2.68 nM; in [3], 6.63 nM. Further, the koff in experiment [2] is 0.00019 s⁻¹; in [3], 0.00311 s⁻¹. In addition, the kon is 70800 M⁻¹ s⁻¹ in experiment [2] and 469000 M⁻¹ s⁻¹ in experiment [3]. Besides, the EC50 was 1.34 nM in [4], above 44.4 nM in experiment [5] and 0.97 nM in [6].

B5: TY24866 (antibody, human IgG4 S228P, kappa, V domains shown)
VH: EVQLVESGGGLVQPGGSLRLSCAASGFSLSTGGVGVGWIRQAPGKGLEWIGEIYHSGSTYYPPSLKSRVTISRDNSKNTLYLQLNSLRAEDTAVYYCARYEYSSYGLDYWGQGTLVTVSS
VL: DIQLTQSPSSLSASVGDRVTITCRASQDIRKFLAWYQQKPGKAPKLLIYDASSLESGVPSRFSGSGSGTDFTLTISSLQPEDFATYYCQQSYRSPRTFGQGTKVEIKR
notes: hIgG4/S241P
Turning to B5, it took 0.27 nM to reach half-maximal inhibition in experiment [1] (IC50). In addition, the Kd in experiment [2] was below 0.001 nM; in experiment [3], 7.64 nM. Moreover, the koff in [2] is below 1e-07 s⁻¹; in experiment [3], 0.004 s⁻¹. Also, the kon in experiment [2] worked out at 58000 M⁻¹ s⁻¹; in experiment [3] it was 524000 M⁻¹ s⁻¹. Besides, the EC50 in [4] is 0.57 nM; in experiment [5] it was above 1.65 nM; in [6], 0.7 nM.

B6: TY24869 (antibody, human IgG4 S228P, kappa, V domains shown)
VH: QVQLVQSGAEVKKPGSSVKVSCKASGYSISSGYHWGWIRQAPGQGLEWIGAIYHSGSTYYSPSLKSRVTITADKSTSTAYMELSSLRSEDTAVYYCARSGLVYYAFDYWGQGTLVTVSS
VL: DIQLTQSPSSLSASVGDRVTITCRASQGIGSYLAWYQQKPGKAPKLLIYDASSLESGVPSRFSGSGSGTDFTLTISSLQPEDFATYYCQQYSTSPLTFGQGTKVEIKR
notes: hIgG4/S241P
In experiment [1], B6 returned an IC50 of 0.55 nM. The Kd was 2.73 nM in experiment [2] and 1.2 nM in experiment [3]. Also, the koff in experiment [2] is 0.000128 s⁻¹; in experiment [3], 0.000454 s⁻¹. For the same molecule, the kon was 46800 M⁻¹ s⁻¹ in experiment [2] and 379000 M⁻¹ s⁻¹ in experiment [3]. Also, the EC50 was 0.87 nM in [4], above 14.8 nM in [5] and 1.07 nM in experiment [6].

B7: TY24876 (antibody, human IgG4 S228P, kappa, V domains shown)
VH: QVQLVQSGAEVKKPGSSVKVSCKASGYSITSGYHWGWIRQAPGQGLEWIGAIYHSGSTYYSPSLKSRVTITADKSTSTAYMELSSLRSEDTAVYYCARGPLSYYAFDYWGQGTLVTVSS
VL: DIQLTQSPSSLSASVGDRVTITCRASQSVSRYLAWYQQKPGKAPKLLIYDASNRATGIPSRFSGSGSGTDFTLTISSLQPEDFATYYCQQYYRSPITFGQGTKVEIKR
notes: hIgG4/S241P
Take B7: in experiment [1], half-maximal inhibition (IC50) required 0.54 nM. The Kd in experiment [2] is below 0.001 nM; in [3] it was 4.28 nM. Also, the values for the koff in experiment [2] and in experiment [3] were below 1e-07 s⁻¹ and 0.000585 s⁻¹, respectively. Moreover, the kon in experiment [2] is 32500 M⁻¹ s⁻¹; in experiment [3], 137000 M⁻¹ s⁻¹. In addition, the EC50 in experiment [4] worked out at 1.02 nM; in experiment [5], 3.93 nM; in [6], 0.38 nM.

B8: TY24879 (antibody, human IgG4 S228P, kappa, V domains shown)
VH: QVQLVQSGAEVKKPGSSVKVSCKASGYSISSGYHWGWIRQAPGQGLEWIGSIYHSGSTYYNPSLKSRVTITADKSTSTAYMELSSLRSEDTAVYYCARSGLRYYAFDVWGQGTLVTVSS
VL: DIQLTQSPSSLSASVGDRVTITCAASQDVSTAVAWYQQKPGKAPKLLIYAASSLQSGVPSRFSGSGSGTDFTLTISSLQPEDFATYYCQQSYRSPITFGQGTKVEIKR
notes: hIgG4/S241P
The molecule B8 came in with an IC50 in experiment [1] of 0.42 nM. For the same molecule, the Kd in [2] was below 0.001 nM; in experiment [3] it was 7.17 nM. In addition, the koff in [2] is below 1e-07 s⁻¹; in [3], 0.00313 s⁻¹. Further, the kon in experiment [2] was found to be 59400 M⁻¹ s⁻¹; in experiment [3] it was 437000 M⁻¹ s⁻¹. For the same molecule, the EC50 in [4] was 0.9 nM; in experiment [5] it was above 1.65 nM; in experiment [6] it was 1.17 nM.

A word on the IC50: it is the midpoint of a concentration-inhibition curve. Usually Kd stands for the equilibrium constant for the complex coming apart. The term koff denotes a measure of how fast the partners let go of each other. Usually kon stands for the rate constant with which the complex forms. What is called EC50 is the concentration that produces a half-maximal response.
